In article PMC8126724, “Infant-Associated Bifidobacterial β-Galactosidases and Their Ability to Synthesize Galacto-Oligosaccharides” (Frontiers in Microbiology, 2021):

Legend:
[1] = substrate: O=[N+]([O-])c1ccccc1O[C@@H]1O[C@H](CO)[C@H](O)[C@H](O)[C@H]1O; experiment: o-nitrophenol release, A420; format: biochemical, Bifidobacterium breve; conditions: 0.1 M sodium acetate pH 6.5, 40 °C, unit mM, not in table
From the text: o-nitrophenol release, A420 on BgaA

[2] = substrate: O=[N+]([O-])c1ccccc1O[C@@H]1O[C@H](CO)[C@H](O)[C@H](O)[C@H]1O; experiment: o-nitrophenol release, A420; format: biochemical, Bifidobacterium breve; conditions: 0.1 M sodium acetate pH 6.5, 40 °C, unit mM, not in table; remark: listed apart in the source
From the text: o-nitrophenol release, A420 on BgaB

Protein	Km [1] [mM]	Km [2] [mM]
BgaA (Bifidobacterium breve UCC2003) (protein, His6-tagged, expressed in Lactococcus lactis (pNZ8150), Ni-purified; dimer) MTNLQSAQQFSQAWLTDPRVFAVNRLAAHSSHKFYDHAPQCGEAMDLKQSLDGQWRVQMVDLADLADNELAEAAFAQPGYDAAGFSPIEVPSALETKGFLNHQYVNQQYPWSGHESPVAPDVPKHNHVALYRHEFSLEPKAAAVLEANKTAADDAAKRRVTLIFQGAATAIVVWLNGAFIGYAEDSFTPSEFDVTDVLRDGVNTLAVACFEFSSASWLEDQDFWRLHGIFRSVELEAQPLVHVNDLRVLADYDHTTGEGSLDVVALVRNAGTAAAVAATVLDAAGNTVWHSKLTAGADAETLTVKANVGKVNPWSAEEPTLYTLQVVATDAAGQVIEAALQRIGFRHFAIEDGLMKLNGKRIVFKGVDRHEFDARTGRTIAEADMIEDIHSFKRLNINAVRTSHYPNETRWYELCDEYGIYVLDETNLETHGSWTDPGDVFQPARAIPGSKDEWRAACVDRTASMVRRDYNHPSVVIWSLGNEAFGGDVFYSMRDFVHENDPFRPVHYEGTFNDPEFSAATDIMSRMYAKPDEIVKLYLGEDGKKPYISCEYSHSMGNSTGGLHLYTELERYPLYQGGFIWDYVDQALWQDCGDGTERLAYGGDFEDRPNDYEFSGDGVMFADRTPSPKAQEVKQLYANVKLVPDESGVTITNDNLFISTASSLFTARVLVDGVECWHANYRFDVPAGETVREPIAFPKVTDLVALSGSAEVTYEVDQRLAEATDWAPAGYELTFGQYVAAVSFDDGAADAVVAGDAEVAADGFNAGIHTDFGEVLLSKTQGGMVSFKRDGREMVIRRPNLTTFRALTDNDRGNGSGFERAQWMAAGRYARVTGTSVEETADGKGLKATYSYELADAKHTPVTVHYEVDAALRVHLTVKYPGEADAATLPAFGLEWILPKQYDRLRFYGLGPEETYADRLHGAKLGVFSRTAAEDCAPYLLPQETGNHEQVRWAEITDEYGHGMRVTAAGGTRFATSLLPYSSLMLEDALHQNELPKPRHTFLRLLAAQMGVGGDDTWGAPVHDEFQVPADQPLKLDVTLELI	10.8	–
BgaB (Bifidobacterium breve UCC2003) (protein, His6-tagged, expressed in Lactococcus lactis (pNZ8150), Ni-purified; trimer) MEHREFKWPQPLAGGKPRIWYGGDYNPDQWPEEVWDEDVALMQKAGVNLVSVAIFSWAKLEPEEGVYDFDWLDRVIDKLGKAGIAVDLASGTASPPMWMTQAHPEILWVDYRGDVCQPGARQHWRATSPVFLDYALNLCRKMAEHYKDNPYVVSWHVSNEYGCHNRFDYSEDAERAFQKWCEKKYGTIDAVNDAWGTAFWAQRMNNFSEIIPPRFIGDGNFMNPGKLLDWKRFSSDALLDFYKAERDALLEIAPKPQTTNFMVSAGGAGIDYDKWGYDVDFVSNDHYFTPGEAHFDELAYSASLCDGIARKNPWFLMEHSSSAVNWRPINYRVEPGELVRDSLAHLAMGADAICYFQWRQSKAGAEKWHSSMVPHAGPDSQIFRDVCELGADLNKLADEGLLSTKLVKSKVAVVFDYESQWATEHTATPTQEVRHWTEPLAWFRALADNGLTADVVPVRGPWDEYEAVVLPSLTILSEETTRRVREYVANGGKLFVTYYTGLVDDKDHVWLGGYPGSIRDVVGVRVEEFAPMGNDFPGAMDHLDLDNGTVAHDFADVITSVADTAHVVASFKADKWTGFDGAPAITINDFGDGKAAYVGARLGREGLAKSLPALLEELGIETSAEDDRGEVLRVERADETGENHFVFLFNRTHDVAIVDVDGEPLVASLAQVNESEHTAAIQPNGVLVVKL	–	8.607
